Experimental data from patent US20240294604A1 (Stanford University, published 2024).
Changes are numbered by the printed parent chain.

T1: A Proliferation Inducing Ligand (APRIL) (human, UniProt O75888 105-250)
T1 sequence: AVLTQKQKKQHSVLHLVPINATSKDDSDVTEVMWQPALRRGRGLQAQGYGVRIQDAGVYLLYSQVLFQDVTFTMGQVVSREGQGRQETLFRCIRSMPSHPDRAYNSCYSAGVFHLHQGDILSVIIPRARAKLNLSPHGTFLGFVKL

B1: BCMA#71 (receptor)
variant BCMA extracellular domain: MLQMAGQCSQNEYFDGLLYACIPCQLRCSSNTPPLACQRYCNASVTNSVKGTDA
notes: also called Clone #71; sBCMA variant clone 71
B2: BCMA#72 (receptor)
variant BCMA extracellular domain: B1 variant BCMA extracellular domain with D53N
notes: also called Clone #72; sBCMA variant clone 72
B3: BCMA#74 (receptor)
variant BCMA extracellular domain: B1 variant BCMA extracellular domain with S9P, N11D, N47S
notes: also called Clone #74; sBCMA variant clone 74
B4: BCMA#75 (receptor)
variant BCMA extracellular domain: MLPMAGQCPQNEYFDSLLYACIPCQLRCSSSTPPLACQHYCNASVTRSVEGTNA
notes: also called Clone #75; clones #49, 75-94
B5: BCMA#95 (receptor)
variant BCMA extracellular domain: B1 variant BCMA extracellular domain with M1V, L2S, M4T, N11D, G16S, D53N
notes: also called Clone #95
B6: BCMA#73 (receptor)
variant BCMA extracellular domain: B1 variant BCMA extracellular domain with Y19H, D53N
notes: also called Clone #73; clone #22
B7: BCMA#106 (receptor)
variant BCMA extracellular domain: VSQTAGQCSQNEYFDGLLHACIPCQLRCSSDIPPLACQRYCNASVTNSVKGTNA
notes: also called Clone #106; clones #106-111

target: BAFF; experiment: cell binding titration by flow cytometry; soluble BAFF varied to 10 nM on cells displaying the BCMA clone; B.P is not defined in the filing

B.P | Binder
136 | B1
121 | B2
186 | B3

target: T1, A Proliferation Inducing Ligand (APRIL); experiment: cell binding titration by flow cytometry; soluble APRIL varied to 10 nM on cells displaying the BCMA clone

Bmax [A.U.] | Kd [nM] | Binder
7060 | ~0.016 | B4
8270 | 0.008 | B1
7230 | 0.028 | B5
5860 | 0.018 | B2
5530 | 0.054 | B6
9200 | 0.007 | B3
7910 | 0.015 | B7

target: BAFF; experiment: cell binding titration by flow cytometry; soluble BAFF varied to 10 nM on cells displaying the BCMA clone

Bmax [A.U.] | Kd [nM] | Binder
1230 | 0.009 | B1
974 | 0.008 | B2
1680 | 0.009 | B3
870 | 0.028 | B7

target: BAFF; experiment: cell binding titration by flow cytometry; soluble BAFF varied on cells displaying the BCMA clone

binding result | Binder
no binding | B6

target: T1, A Proliferation Inducing Ligand (APRIL); experiment: cell binding titration by flow cytometry; soluble APRIL varied to 10 nM on cells displaying the BCMA clone; BP is not defined in the filing

BP | Binder
441 | B4
1030 | B1
258 | B5
325 | B2
102 | B6
1310 | B3
527 | B7
